Measured values taken from patent US20110195067A1.

Biological target: FcγRIII (CD16) (human) (UniProt P08637)
Test: cell-based or functional assay

Chain of FcγRIII (CD16) (human) (P08637 17-254): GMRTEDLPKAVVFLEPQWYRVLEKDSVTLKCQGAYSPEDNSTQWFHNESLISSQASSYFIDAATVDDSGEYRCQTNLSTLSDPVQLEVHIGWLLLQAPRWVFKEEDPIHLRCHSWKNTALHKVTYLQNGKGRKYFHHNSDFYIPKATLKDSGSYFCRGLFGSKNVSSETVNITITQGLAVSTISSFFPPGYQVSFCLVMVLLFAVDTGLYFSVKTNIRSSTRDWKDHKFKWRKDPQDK

IFN-γ secretion from PBMC, aggregated IgG (40 µg/ml) + IL-2 | TNF-α secretion from PBMC, aggregated IgG (40 µg/ml) + IL-2 | fold induction of PBMC proliferation over IL-2, 125 µg/mL of AIG | proliferative response of PBMC, 125 µg/mL of AIG and IL-2 | IFN-γ secretion from PBMC, immobilized 3G8 (10 µg/ml) + IL-2 | TNF-α secretion from PBMC, immobilized 3G8 (10 µg/ml) + IL-2 | proliferative response of PBMC ([methyl-3H] thymidine), IL-2 and immobilized anti-CD16 mAb | proliferative response of PBMC ([methyl-3H] thymidine), immobilized anti-CD16 mAb alone | Substance
13 ng/mL | 2.46 ng/mL | 16 fold | 17400 CPM | – | – | – | – | heat aggregated IgG
– | – | – | – | 9.85 ng/mL | 3.32 ng/mL | 15500 CPM | 592 CPM | anti-CD16 mAb 3G8 (Caltag Laboratories) (antibody)
